Laboratory results reported in patent US20240117030A1 (Pfizer, published 2024).

How the values were obtained:
human IL-4R alpha [1] = target: T1, human IL-4R alpha (human, UniProt P24394 26-825); assay: cell-based or functional assay
human IL-4R alpha [2] = target: T1, human IL-4R alpha; assay: cell-based or functional assay; remark: listed apart in the source
[3] = target: T2, recombinant human IL-12 (p35+p40) (human, UniProt P29459 23-219; P29460 23-328); assay: SPR (Biacore T200, 37 C), antibody captured by anti-human Fc, cytokine injected
T2 sequence (looked up) 1: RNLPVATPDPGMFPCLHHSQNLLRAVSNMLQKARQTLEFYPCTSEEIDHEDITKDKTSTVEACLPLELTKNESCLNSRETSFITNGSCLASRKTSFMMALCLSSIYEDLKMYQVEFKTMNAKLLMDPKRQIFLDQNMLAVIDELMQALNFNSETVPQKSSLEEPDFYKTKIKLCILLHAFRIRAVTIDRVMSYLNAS
T2 sequence (looked up) 2: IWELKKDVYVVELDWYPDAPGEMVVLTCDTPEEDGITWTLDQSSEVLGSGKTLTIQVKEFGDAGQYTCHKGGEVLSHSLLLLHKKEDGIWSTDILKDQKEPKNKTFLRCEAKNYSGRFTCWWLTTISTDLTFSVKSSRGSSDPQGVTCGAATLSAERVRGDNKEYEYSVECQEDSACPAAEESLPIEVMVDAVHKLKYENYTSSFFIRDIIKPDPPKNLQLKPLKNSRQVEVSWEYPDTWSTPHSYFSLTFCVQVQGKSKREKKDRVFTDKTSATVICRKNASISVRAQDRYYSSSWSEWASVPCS

[4] = target: T3, recombinant cynomolgus monkey IL-23 (p19+p40) (cynomolgus monkey, UniProt H6WS56 20-189; G7P6S2 23-328); assay: as above
T3 construct: also called Cyno IL-23
T3 sequence (p19): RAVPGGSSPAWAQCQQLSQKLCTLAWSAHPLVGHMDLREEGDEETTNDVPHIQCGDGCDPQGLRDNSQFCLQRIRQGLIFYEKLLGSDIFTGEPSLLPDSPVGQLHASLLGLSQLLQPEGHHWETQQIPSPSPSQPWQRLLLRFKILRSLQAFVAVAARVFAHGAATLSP
T3 sequence (p40): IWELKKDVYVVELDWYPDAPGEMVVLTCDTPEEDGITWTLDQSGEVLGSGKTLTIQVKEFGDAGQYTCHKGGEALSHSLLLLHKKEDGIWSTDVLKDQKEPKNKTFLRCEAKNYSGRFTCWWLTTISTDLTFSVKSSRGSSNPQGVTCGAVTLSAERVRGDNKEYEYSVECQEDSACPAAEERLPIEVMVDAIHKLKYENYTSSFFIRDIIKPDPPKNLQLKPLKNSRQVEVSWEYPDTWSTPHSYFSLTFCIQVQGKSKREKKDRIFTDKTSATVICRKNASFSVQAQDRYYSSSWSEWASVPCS

[5] = target: T4, recombinant human IL-23 (p19+p40) (human, UniProt Q9NPF7 20-189; P29460 23-328); assay: as above
T4 sequence (looked up) 1: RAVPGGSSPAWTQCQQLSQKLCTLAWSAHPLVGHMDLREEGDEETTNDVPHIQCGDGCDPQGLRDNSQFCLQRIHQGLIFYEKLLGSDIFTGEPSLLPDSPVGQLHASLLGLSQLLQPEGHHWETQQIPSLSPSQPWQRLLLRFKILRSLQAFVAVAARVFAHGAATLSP
T4 sequence (looked up) 2: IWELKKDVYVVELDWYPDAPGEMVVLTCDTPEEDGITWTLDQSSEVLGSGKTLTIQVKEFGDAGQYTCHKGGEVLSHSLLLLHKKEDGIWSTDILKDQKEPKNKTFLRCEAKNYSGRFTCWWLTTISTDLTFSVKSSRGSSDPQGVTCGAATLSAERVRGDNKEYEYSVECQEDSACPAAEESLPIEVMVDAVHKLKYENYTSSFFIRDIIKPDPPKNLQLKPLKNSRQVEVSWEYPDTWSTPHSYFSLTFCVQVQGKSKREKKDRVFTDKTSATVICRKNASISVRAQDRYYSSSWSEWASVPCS

[6] = target: T5, recombinant cynomolgus monkey IL-12 (p35+p40) (cynomolgus monkey, UniProt A0A2K5V4L8 57-253; G7P6S2 23-328); assay: as above
T5 construct: also called Cyno IL-12
T5 sequence (p35): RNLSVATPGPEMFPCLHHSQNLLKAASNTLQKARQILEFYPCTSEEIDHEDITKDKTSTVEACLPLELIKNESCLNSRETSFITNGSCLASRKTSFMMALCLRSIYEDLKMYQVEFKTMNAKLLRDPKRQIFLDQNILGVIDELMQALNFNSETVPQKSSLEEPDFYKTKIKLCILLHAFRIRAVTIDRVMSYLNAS
T5 sequence (p40): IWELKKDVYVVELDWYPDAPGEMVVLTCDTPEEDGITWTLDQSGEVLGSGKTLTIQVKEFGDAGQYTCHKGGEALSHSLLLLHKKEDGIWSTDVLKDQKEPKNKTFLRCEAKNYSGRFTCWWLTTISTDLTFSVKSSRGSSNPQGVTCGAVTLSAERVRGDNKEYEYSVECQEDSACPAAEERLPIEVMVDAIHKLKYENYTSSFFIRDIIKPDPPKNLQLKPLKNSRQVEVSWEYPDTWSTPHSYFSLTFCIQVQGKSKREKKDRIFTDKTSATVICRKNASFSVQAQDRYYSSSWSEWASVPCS

[7] = target: T6, cynomolgus monkey IL-33 (Pfizer) (cynomolgus monkey, UniProt A0A2K5W3I1 112-269); assay: cell-based or functional assay
T6 sequence: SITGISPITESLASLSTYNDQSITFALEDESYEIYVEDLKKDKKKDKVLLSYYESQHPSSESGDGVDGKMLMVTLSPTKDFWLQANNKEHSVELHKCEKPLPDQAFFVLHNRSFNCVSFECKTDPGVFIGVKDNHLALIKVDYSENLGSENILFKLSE

[8] = target: T7, recombinant human IL-33 (R&D Systems 3625-IL) (human, UniProt O95760 112-270, limits assumed); assay: cell-based or functional assay
T7 sequence (looked up): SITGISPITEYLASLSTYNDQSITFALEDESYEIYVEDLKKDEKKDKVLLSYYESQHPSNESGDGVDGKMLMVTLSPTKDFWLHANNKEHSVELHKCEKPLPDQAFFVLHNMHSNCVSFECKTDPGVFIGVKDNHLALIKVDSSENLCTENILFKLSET

[9] = target: T7, recombinant human IL-33 (R&D Systems …); assay: cell-based or functional assay; remark: listed apart in the source
[10] = target: T8, recombinant human TSLP (glycosylated long form) (human, UniProt Q969D9 29-159); assay: cell-based or functional assay
[11] = target: T8, recombinant human TSLP (glycosylated …); assay: cell-based or functional assay; remark: listed apart in the source
[12] = target: T8, recombinant human TSLP (glycosylated …); assay: cell-based or functional assay; remark: listed apart in the source
[13] = target: T8, recombinant human TSLP (glycosylated …); assay: competition ELISA on coated TSLP; competitor biotinylated TSLP-0001 (69 pM)
human TSLP short form = target: T9, human TSLP short form (human, UniProt Q969D9-2 1-63, limits assumed); assay: SPR (Biacore 8K, 37 C), antibody captured on anti-Fab antibody on a CM5 chip, 300 nM short form TSLP injected (concentration from Example 79)
T9 construct: also called sfTSLP; TSLPsf Avi V5 His 10 Biotin

B1: Dupilumab (antibody, V domains shown)
VH: EVQLVESGGGLEQPGGSLRLSCAGSGFTFRDYAMTWVRQAPGKGLEWVSSISGSGGNTYYADSVKGRFTISRDNSKNTLYLQMNSLRAEDTAVYYCAKDRLSITIRPRYYGLDVWGQGTTVTVSS
VL: DIVMTQSPLSLPVTPGEPASISCRSSQSLLYSIGYNYLDWYLQKSGQSPQLLIYLGSNRASGVPDRFSGSGSGTDFTLKISRVEAEDVGFYYCMQALQTPYTFGQGTKLEIKR
- IC50 (median), IL-4 induced CD23 expression on human monocytes (human IL-4R alpha [1]): 0.104 nM
- IC50 (median), IL-13 induced CD23 expression on human monocytes (human IL-4R alpha [2]): 0.0932 nM

B2: p40-0003 (antibody, human IgG1, kappa, V domains shown)
VH: EVQLVQSGAEVKKPGESLKISCKGSGYSFTTYWLGWVRQMPGKGLDWIGIMSPVDSDIRYSPSFQGQVTMSVDKSITTAYLQWNSLKASDTAMYYCARRRPGQGYFDFWGQGTLVTVSS
VL: DIQMTQSPSSLSASVGDRVTITCRASQGISSWLAWYQQKPEKAPKSLIYAASSLQSGVPSRFSGSGSGTDFTLTISSLQPEDFATYYCQQYNIYPYTFGQGTKLEIKR
notes: also called p40 mAb; ustekinumab (C230) variable regions on human IgG1 effector-null
- Kd [3]: 0.156 nM
- Kd [4]: 0.317 nM
- Kd [5]: 0.16 nM
- Kd [6]: 0.368 nM

B3: IL13433-1258 (antibody)
heavy: EVQLVESGGGLVQPGGSLRLSCAASGFTFSSYWMYWVRQAPGKGLEWVAAITPNAGEDYYPESVKGRFTISRDNAKNSLYLQMNSLRAEDTAVYYCARGQYYYTKYSLGYWGQGTLVTVSSASTKGPSVFPLAPSSKSTSGGTAALGCLVKDYFPEPVTVSWNSGALTSGVHTFPAVLQSSGLYSLSSVVTVPSSSLGTQTYICNVNHKPSNTKVDKKVEPKSCRKTHTCPPCPAPEAAGAPSVFLFPPKPKDTLMISRTPEVTCVVVDVSHEDPEVKFNWYVDGVEVHNAKTKPREEQYNSTYRVVSVLTVLHQDWLNGKEYKCKVSNKALPAPIEKTISKAKGQPREPQVYTLPPSREEMTKNQVSLTCLVKGFYPSDIAVEWESNGQPENNYKTTPPVLDSDGSFFLYSRLTVDKSRWQQGNVFSCSVLHEALHSHYTQKSLSLSPGK
light 1: DIQMTQSPSSLSASVGDRVTITCRASQPIHNHLDWYQQKPGKAPKLLIYFGKNLQEGVPSRFSGSGSGTDFTLTISSLQPEDFATYYCFQYKKGWSFGGGTKVEIKRTVAAPSVFIFPPSDEQLKSGTASVVCLLNNFYPREAKVQWKVDNALQSGNSQESVTEQDSKDSTYSLSSTLTLSKADYEKHKVYACEVTHQGLSSPVTKSFNRGEC
chain 1: DIQMTQSPSSLSASVGDRVTITCKASESVDHFGWSLVHWYQQKPGKAPKLLIYRASNLESGVPSRFSGSGSGTDFTLTISSLQPEDFATYYCQQSNEDPWTFGGGTKVEIKRTVAAPSVFIFPPSDEQLKSGTASVVCLLNNFYPREAKVQWKVDNALQSGNSQESVTEQDSKDSTYSLSSTLTLSKADYEKHKVYACEVTHQGLSSPVTKSFNRGECGGGGSEVTLRESGPALVKPTQTLTLTCTFSGFSLSNFGEGLSWIRQPPGKGLEWLAHIYWDDDKRYNPSLKSRLTISKDTSRNQVVLTMTNMDPVDTATYYCARRETVFYWYFDVWGQGTTVTVSSASTKGPSVFPLAPSSKSTSGGTAALGCLVKDYFPEPVTVSWNSGALTSGVHTFPAVLQSSGLYSLSSVVTVPSSSLGTQTYICNVNHKPSNTKVDKKVEPKSCEKTHTCPPCPAPEAAGAPSVFLFPPKPKDTLMISRTPEVTCVVVDVSHEDPEVKFNWYVDGVEVHNAKTKPREEQYNSTYRVVSVLTVLHQDWLNGKEYKCKVSNKALPAPIEKTISKAKGQPREPQVYTLPPSREEMTKNQVSLTCEVKGFYPSDIAVEWESNGQPENNYKTTPPVLDSDGSFFLYSKLTVDKSRWQQGNVFSCSVLHEALHSHYTQKSLSLSPGK
light 2: DIQMTQSPSSLSASVGDRVTITCRASQSVDEEGDSYMNWYQQKPGKAPKLLIYAASNLESGVPSRFSGSGSGTDFTLTISSLQPEDFATYYCQQSNKDPPTFGGGTKVEIKRTVAAPSVFIFPPSDEQLKSGTASVVCLLNNFYPREAKVQWKVDNALQSGNSQESVTEQDSKDSTYSLSSTLTLSKADYEKHKVYACEVTHQGLSSPVTKSFNRGEC
chain 2: EVQLVESGGGLVQPGGSLRLSCAASGFTFSSYAMSWVRQAPGKGLEWVASISSGDTTYYPDSVKGRFTISRDNAKNSLYLQMNSLRAEDTAVYYCARNEGYYFGLTLWGQGTLVTVSSASTKGPSVFPLAPSSKSTSGGTAALGCLVKDYFPEPVTVSWNSGALTSGVHTFPAVLQSSGLYSLSSVVTVPSSSLGTQTYICNVNHKPSNTKVDKKVEPKSC
- IC50, IL-33-induced SEAP activity in HEK-Blue IL-33 SEAP cells (median) [7]: 0.274 nM
- IC50, IL-33-induced SEAP activity in HEK-Blue IL-33 SEAP cells (median) [8]: 0.0134 nM
- IC50 (pM) HEK-Blue IL-33 SEAP (mean) [9]: 13.4 pM

B4: TSLP-0100 (antibody, human IgG1, V domains shown)
VH: QMQLVESGGGVVQPGRSLRLSCAASGFTFRTYGMHWVRQAPGKGLEWVAVIWYDGSNKHYADSVKGRFTISRDNSKNTLYLQMNSLRAEDTAVYYCARAPQWELVHEAFDIWGQGTMVTVSS
VL: SYVLTQPPSVSVAPGQTARITCGGNNLGSKSVHWYQQKPGQAPVLVVYDDSDRPSWIPERFSGSNSGNTATLTISRGEAGDEADYYCQVWDSSSDHVVFGGGTKLTVLG
notes: also called IL413TSLP-0100
- a-TSLP bioassay (IC50, pM) [10]: 24.6 pM
- anti-hTSLP TARC bioactivity (fold change to TSLP-0001) [11]: 0.9 fold
- a-TSLP TARC bioassay (fold change to TSLP-0001) [12]: 0.9 fold
- IC50 [13]: 0.87 nM

B5: TSLP-0875 (antibody, human IgG1, lambda, V domains shown)
VH: QMQLVESGGGVVQPGRSLRLSCAASGFTFRTYGMHWVRQAPGKGLEWVAVIWYDGSNKHYADSVKGRFTISRDNSKNTLYLQMNSLRAEDTAVYYCARAPQWYLVHEAFDIWGQGTMVTVSS
VL: SYVLTQPPSVSVAPGQTARITCGGNNLGSKSVHWYQQKPGQAPVLVVYDDKDRPSWIPERFSGSNSGNTATLTISRGEAGDEADYYCQVWDSKSDHVVFGGGTKLTVLG
- binding result (human TSLP short form): no binding (tested: 300 nM)
